# According to publication PMC13396810, “HELZ is a RNA-DNA helicase that resolves R loops to facilitate homologous recombination repair”:
# Assays:
# [1] = molecular target: HELZ WT (insect-purified) (human, UniProt P42694 1-1942); experiment: EMSA; no ATP; 5 nM substrate; EMSA: 10 mM Tris-HCl pH 7.5, 60 mM KCl, 100 ng/ul BSA, 2 U/ul RNaseIN, 1 mM DTT, 30 min on ice, 5% native TAE gel 4 C; pull-down: 10 mM Tris-HCl pH 7.5, 100 mM; details: protein: recombinant; label: Cy5 at 5' end of RNA; 30 bp hybrid S1[16-45] with S2[31-60]; 15 nt 5' RNA overhang; 30 nt 5' and 30 nt 3' DNA overhangs
# HELZ WT (insect-purified), sequence (P42694 whole entry): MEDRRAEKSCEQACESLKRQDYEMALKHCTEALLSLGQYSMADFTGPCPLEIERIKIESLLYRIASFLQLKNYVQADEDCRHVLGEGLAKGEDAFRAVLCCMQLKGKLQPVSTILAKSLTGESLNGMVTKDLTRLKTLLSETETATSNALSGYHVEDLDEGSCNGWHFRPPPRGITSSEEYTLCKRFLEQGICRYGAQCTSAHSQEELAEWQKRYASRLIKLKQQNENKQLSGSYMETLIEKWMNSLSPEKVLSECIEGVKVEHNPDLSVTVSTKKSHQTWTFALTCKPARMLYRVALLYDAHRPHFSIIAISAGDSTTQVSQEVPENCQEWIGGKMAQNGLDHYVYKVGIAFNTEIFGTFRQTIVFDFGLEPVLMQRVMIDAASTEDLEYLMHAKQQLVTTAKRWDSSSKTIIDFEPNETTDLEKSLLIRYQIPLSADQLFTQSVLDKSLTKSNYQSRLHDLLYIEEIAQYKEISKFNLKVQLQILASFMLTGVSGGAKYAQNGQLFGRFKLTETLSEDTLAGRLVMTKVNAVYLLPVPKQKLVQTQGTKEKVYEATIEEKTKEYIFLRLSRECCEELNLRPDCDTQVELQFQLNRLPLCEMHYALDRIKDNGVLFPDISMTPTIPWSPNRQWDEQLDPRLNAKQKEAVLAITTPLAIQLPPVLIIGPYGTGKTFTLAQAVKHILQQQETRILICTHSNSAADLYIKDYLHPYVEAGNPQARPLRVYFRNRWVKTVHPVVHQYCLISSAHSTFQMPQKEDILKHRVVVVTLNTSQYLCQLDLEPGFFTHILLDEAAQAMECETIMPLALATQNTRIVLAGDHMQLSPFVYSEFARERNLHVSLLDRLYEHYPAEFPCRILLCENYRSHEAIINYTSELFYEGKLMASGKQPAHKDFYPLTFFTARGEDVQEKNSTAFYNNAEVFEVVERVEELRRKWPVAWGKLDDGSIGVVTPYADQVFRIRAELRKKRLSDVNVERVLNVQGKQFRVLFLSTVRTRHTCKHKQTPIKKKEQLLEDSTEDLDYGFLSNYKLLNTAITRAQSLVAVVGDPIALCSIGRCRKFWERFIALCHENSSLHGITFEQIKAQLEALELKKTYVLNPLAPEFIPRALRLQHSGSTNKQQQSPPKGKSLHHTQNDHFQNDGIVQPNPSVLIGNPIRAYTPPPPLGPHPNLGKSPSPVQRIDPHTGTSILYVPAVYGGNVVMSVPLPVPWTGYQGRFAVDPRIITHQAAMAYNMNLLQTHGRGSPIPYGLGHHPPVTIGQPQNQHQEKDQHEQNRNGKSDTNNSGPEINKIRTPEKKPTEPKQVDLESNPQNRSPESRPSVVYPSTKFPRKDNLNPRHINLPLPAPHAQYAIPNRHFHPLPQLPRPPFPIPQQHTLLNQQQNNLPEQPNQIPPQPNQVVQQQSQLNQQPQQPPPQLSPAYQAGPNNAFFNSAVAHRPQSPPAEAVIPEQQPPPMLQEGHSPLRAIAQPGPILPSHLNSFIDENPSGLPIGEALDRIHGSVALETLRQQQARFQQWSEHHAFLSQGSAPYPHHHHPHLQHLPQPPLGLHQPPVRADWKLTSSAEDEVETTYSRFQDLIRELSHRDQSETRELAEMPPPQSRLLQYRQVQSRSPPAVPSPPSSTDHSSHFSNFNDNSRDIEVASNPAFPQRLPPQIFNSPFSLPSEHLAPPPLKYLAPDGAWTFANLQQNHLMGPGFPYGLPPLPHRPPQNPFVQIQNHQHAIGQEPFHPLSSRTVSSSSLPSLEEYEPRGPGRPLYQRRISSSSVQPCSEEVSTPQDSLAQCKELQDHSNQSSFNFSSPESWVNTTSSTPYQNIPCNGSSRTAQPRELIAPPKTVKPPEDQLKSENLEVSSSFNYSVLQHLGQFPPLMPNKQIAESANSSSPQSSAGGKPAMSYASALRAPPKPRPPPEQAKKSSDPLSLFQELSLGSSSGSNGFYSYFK
# [2] = molecular target: HELZ K674N (insect-purified) (human, UniProt P42694 1-1942, K674N); experiment: EMSA; no ATP; 5 nM substrate; comparable to WT; EMSA: 10 mM Tris-HCl pH 7.5, 60 mM KCl, 100 ng/ul BSA, 2 U/ul RNaseIN, 1 mM DTT, 30 min on ice, 5% native TAE gel 4 C; pull-down: 10 mM Tris-HCl pH 7.5, 100 mM; details: protein: recombinant; label: Cy5 at 5' end of RNA; 30 bp hybrid S1[16-45] with S2[31-60]; 15 nt 5' RNA overhang; 30 nt 5' and 30 nt 3' DNA overhangs
# HELZ K674N (insect-purified), sequence (P42694 whole entry K674N): as the sequence (P42694 whole entry) above, with K674N counted along it
binder,measurement,setting,value
RNA/DNA hybrid with 5' ssRNA overhang (EMSA) (DNA:RNA) RNA: UCGUAGCUCGGGAGUGCACCAGAUUCAGCAAUUAAGCUCUAAGCC DNA: GTCACTTGATAAGAGGTCATTTGAATTCATGGCTTAGAGCTTAATTGCTGAATCTGGTGCTGGGATCCAACATGTTTTAAATATGCAATG,binding result,[1],binds
same,binding result,[2],binds
